Patent US20080261871A1, “Y2/Y4 Selective Receptor Agonists for Therapeutic Interventions” (priority 2004, published 2008)
No end group written: not given here.

T1: human Y2 receptor (human, UniProt P49146 1-381)
T1 sequence (looked up): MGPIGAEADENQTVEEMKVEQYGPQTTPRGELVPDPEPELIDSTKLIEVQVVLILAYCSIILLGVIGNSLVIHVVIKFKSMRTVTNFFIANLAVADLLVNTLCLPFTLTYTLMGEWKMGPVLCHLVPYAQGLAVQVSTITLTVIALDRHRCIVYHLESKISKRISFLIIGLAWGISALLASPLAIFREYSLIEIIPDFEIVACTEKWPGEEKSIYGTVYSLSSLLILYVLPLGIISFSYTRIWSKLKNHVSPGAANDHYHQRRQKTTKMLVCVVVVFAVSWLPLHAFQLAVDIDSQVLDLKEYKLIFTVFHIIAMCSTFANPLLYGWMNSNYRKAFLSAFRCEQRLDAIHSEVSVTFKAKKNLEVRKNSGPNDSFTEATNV

T2: human Y1 receptor (human, UniProt P25929 1-384)
T2 sequence (looked up): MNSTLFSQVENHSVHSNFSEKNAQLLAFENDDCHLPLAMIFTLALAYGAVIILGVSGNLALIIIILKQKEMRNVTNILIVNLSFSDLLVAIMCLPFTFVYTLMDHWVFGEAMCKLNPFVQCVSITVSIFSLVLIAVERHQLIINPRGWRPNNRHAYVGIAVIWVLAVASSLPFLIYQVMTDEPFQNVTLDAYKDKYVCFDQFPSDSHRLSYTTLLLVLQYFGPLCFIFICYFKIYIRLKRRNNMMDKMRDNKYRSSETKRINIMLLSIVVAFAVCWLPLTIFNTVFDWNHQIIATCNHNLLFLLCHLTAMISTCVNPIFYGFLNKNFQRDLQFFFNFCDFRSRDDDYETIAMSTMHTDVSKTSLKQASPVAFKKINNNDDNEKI


Experiments:
in vivo [1] = conditions: dog, iv, 100 ug/kg
Protocol: (§1) At the highest dose a plasma levels of 100 nM was obtained in the dogs.

anesthetized dogs = test: in vivo; conditions: dog, iv
Protocol: as §1

mice = test: Acute food intake in mice after subcutaneous injection; format: in vivo; conditions: mice fasted 16 hours, sc
Protocol: Food and water were available ad libitum except just before experiments (see below). The mice were acclimatized to subcutaneous injections during the week before experiments started. Mice were used once each in the experiments. Just before administration the peptides were diluted in physiological saline and administered in 100 μL volume for subcutaneous administration. Results are expressed as mean +/−SE. Analysis of variance followed by Bonferroni's test were used to assess differences among groups.
A standard diet was used (CLEA Japan, Inc., Tokyo, Japan) and food intake was measured by subtracting uneaten food from the initially premeasured food after administration and checking for food spillage.

in vivo [2] = test: in vivo; parameters: species or system cyno monkeys; conditions: cynomolgus monkey
Description: […]. […] […]. Apparently, the Y4 receptor activation—conceivably in the area postreama-prevents the emetic effect of the Y2 activation form the same compound. This property of a combined Y2-Y4 selective agonist is of great benefit for the treatment of obesity and associated conditions.

human Y2 receptor = molecular target: T1, human Y2 receptor; test: cell-based or functional assay
human Y4 receptor = human Y4 receptor (human, UniProt P50391 1-375); test: cell-based or functional assay
human Y1 receptor = molecular target: T2, human Y1 receptor; test: cell-based or functional assay

human Y4 receptor, sequence (P50391 whole entry): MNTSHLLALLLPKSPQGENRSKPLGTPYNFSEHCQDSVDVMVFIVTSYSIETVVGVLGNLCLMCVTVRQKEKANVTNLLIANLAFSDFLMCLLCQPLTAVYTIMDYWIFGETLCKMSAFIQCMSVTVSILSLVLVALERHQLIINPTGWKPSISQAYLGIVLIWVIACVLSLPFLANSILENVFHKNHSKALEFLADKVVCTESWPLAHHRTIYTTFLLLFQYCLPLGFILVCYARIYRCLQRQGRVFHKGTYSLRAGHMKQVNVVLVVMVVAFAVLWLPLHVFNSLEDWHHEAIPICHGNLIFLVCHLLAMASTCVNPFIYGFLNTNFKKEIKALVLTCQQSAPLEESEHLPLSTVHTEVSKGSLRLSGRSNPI

Row | Molecule | level at time molar (in vivo [1]) | plasma level dose relationship (anesthetized dogs) | duration of inhibition of food intake (mice; 1 μg per animal) | inhibitory effect on food intake compared with PYY3-36 (mice; 1 and 10 μg per animal) | level at time molar (in vivo [2]) | EC50, inositol phosphate turnover (human Y2 receptor) | EC50, inositol phosphate turnover (human Y4 receptor) | EC50, inositol phosphate turnover (human Y1 receptor)
1 | CC[C@H](C)[C@H](NC(=O)[C@H](Cc1ccc(O)cc1)NC(=O)[C@H](CCCNC(=N)N)NC(=O)[C@H](CCCNC(=N)N)NC(=O)[C@H](CC(C)C)NC(=O)[C@H](CC(=O)O)NC(=O)[C@H](C)NC(=O)[C@H](C)NC(=O)[C@H](Cc1ccc(O)cc1)NC(=O)[C@H](CCC(N)=O)NC(=O)[C@H](C)NC(=O)[C@H](CCSC)NC(=O)[C@H](CCC(N)=O)NC(=O)[C@H](CCC(=O)O)NC(=O)[C@@H]1CCCN1C(=O)[C@@H](NC(=O)[C@H](C)NC(=O)[C@H](CC(N)=O)NC(=O)[C@H](CC(=O)O)NC(=O)CNC(=O)[C@@H]1CCCN1C(=O)[C@H](Cc1ccc(O)cc1)NC(=O)[C@@H](NC(=O)[C@@H]1CCCN1C(=O)[C@H](CCC(=O)O)NC(=O)[C@H](CC(C)C)NC(=O)[C@@H]1CCCN1C(=O)[C@H](C)N)C(C)C)[C@@H](C)O)C(=O)N[C@@H](CC(N)=O)C(=O)N[C@@H](CCSC)C(=O)N[C@@H](CC(C)C)C(=O)N[C@H](C(=O)N[C@@H](CCCNC(=N)N)C(=O)N[C@@H](CCC(N)=O)C(=O)N[C@@H](CCCNC(=N)N)C(=O)N[C@@H](Cc1ccc(O)cc1)C(N)=O)[C@@H](C)O [[Gln34]PP] | 100 nM | linear dose relationship | more than 8 hours | more pronounced and long-lasting inhibitory effect | 12 to 13 nM |  |  | 
2 | APLEPVYPGDNATPEQMAQYAADLRHYINMLTRQRY-NH2 [[His26,Gln34]PP] |  |  |  |  |  | 6.1 nM | 9.2 nM | 130 nM
3 | APLEPVYPGDNATPEQMAQYAADLRRYINLLTRQRY-NH2 [[Leu30,Gln34]PP] |  |  |  |  |  | 8.6 nM | 4.5 nM | 102 nM
